Columns and labels:
[1] = biological target: T1, human C4b (human) (UniProt P0C0L4)
T1 sequence: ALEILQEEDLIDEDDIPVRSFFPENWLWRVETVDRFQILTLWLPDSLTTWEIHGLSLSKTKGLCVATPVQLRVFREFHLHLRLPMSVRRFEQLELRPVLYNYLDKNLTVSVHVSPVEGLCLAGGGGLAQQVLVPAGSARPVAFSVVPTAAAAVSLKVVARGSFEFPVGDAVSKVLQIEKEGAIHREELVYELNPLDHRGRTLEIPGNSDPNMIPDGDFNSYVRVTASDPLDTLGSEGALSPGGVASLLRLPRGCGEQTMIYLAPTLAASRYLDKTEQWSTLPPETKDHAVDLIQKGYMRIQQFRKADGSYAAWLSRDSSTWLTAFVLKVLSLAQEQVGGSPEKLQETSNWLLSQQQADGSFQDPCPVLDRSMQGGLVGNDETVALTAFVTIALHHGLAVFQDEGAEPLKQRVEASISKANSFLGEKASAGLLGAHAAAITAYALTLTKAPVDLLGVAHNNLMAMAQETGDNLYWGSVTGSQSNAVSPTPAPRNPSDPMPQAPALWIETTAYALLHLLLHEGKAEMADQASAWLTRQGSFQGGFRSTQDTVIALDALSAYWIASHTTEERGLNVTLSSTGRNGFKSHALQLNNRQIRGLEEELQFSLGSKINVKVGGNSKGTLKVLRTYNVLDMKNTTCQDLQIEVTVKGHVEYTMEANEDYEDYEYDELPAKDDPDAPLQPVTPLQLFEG

[2] = biological target: soluble human C3b (human) (UniProt P01024)

Row | Substance | C4c EC50 (nM) [1] | iC3b EC50 [2] | C4c EC50 [1]
1 | CFI-HSA variant E457G; N531G; E461Q; R462K; F464Y; GGSSGG (SEQ ID NO: 6); CR1 (ccp15-17) (from UniProt P17927) (enzyme) | 43.1 nM | 32.7 nM | 
2 | CFI-HSA variant R557L (enzyme) | 177 nM | 113 nM | 
3 | CFI-HSA variant N531G; E457G; R462K (enzyme) |  | 7.7 nM | 17.3 nM
4 | CFI-HSA variant N531G; E457G; E461Q; R557A (enzyme) | 25 nM | 19.1 nM | 
5 | CFI-HSA variant E457G; N531G; P535G; WT; GGSSGG (SEQ ID NO: 6); CR1(ccp15-17) (enzyme) |  | 14.3 nM | 44.4 nM
6 | CFI-HSA variant R557I (enzyme) | 117 nM | 128 nM | 
7 | CFI-HSA variant N531G; E457G; E461Q; ΔC-term (Δ558-PFISQYNV (SEQ ID NO: 14)-565) (enzyme) | 51.1 nM | 97.1 nM | 
8 | CFI-HSA variant T377G; E457G; E461Q (enzyme) | 14.9 nM | 4.5 nM | 
9 | CFI-HSA variant D549N (enzyme) | 168 nM | 21.9 nM | 
10 | CFI-HSA variant R557G (enzyme) | 143 nM | > 500 nM | 
11 | CFI-HSA variant R557N (enzyme) | 154 nM | 360 nM | 
12 | CFI-HSA variant E457G; E461Q; R557A (enzyme) | 61.8 nM | 36.6 nM | 
13 | CFI-HSA variant E457G; N531G; D425R; E530Y (enzyme) | 16.4 nM | 4.4 nM | 
14 | CFI-HSA variant D549A (enzyme) | > 1000 nM | 32.2 nM | 
15 | CFI-HSA variant N531G; E457G; E461Q; R557K (enzyme) | 23.2 nM | 8.3 nM | 
16 | CFI-HSA variant N531G; E461Q; R462K (enzyme) |  | 5.3 nM | 38.7 nM
17 | CFI-HSA variant D425R; Y408L; N531G; E457G; E461Q; R462K; F464Y; E530Y (enzyme) | 12.3 nM | 4.3 nM | 

Row | Substance | C4c EC50 (nM) [1] | iC3b EC50 [2] | C4c EC50 [1]
18 | CFI-HSA variant K504D; Y408L; N531G (enzyme) |  | 20.9 nM | 242 nM
19 | CFI-HSA variant E401G (enzyme) | 126 nM | 8.9 nM | 
20 | CFI-HSA variant N531G; P535A; R557A (enzyme) | 28.2 nM | 47.5 nM | 
21 | CFI-HSA variant T377G; E461Q (enzyme) | 28.4 nM | 6.5 nM | 
22 | CFI-HSA variant R557M (enzyme) | 82 nM | 164 nM | 
23 | CFI-HSA variant R557Q (enzyme) | 120 nM | 286 nM | 
24 | CFI-HSA variant E457G; N531G; E461Q; R462K; F464Y; E530Y (enzyme) | 7.8 nM | 3.5 nM | 
25 | CFI-HSA variant D425P (enzyme) |  | 13.6 nM | 640 nM
26 | CFI-HSA variant R557T (enzyme) | 324 nM | 217 nM | 
27 | CFI-HSA variant Y408L; WT; GGSSGG (SEQ ID NO: 6); CR1(ccp15-17) (enzyme) |  | 37.5 nM | 95.9 nM
28 | CFI-HSA variant N531G; E457G; F464Y (enzyme) |  | 7 nM | 16.4 nM
29 | CFI-HSA variant R557V (enzyme) | 138 nM | 165 nM | 
30 | CFI-HSA variant D459G (enzyme) | 348 nM | 24.6 nM | 
31 | CFI-HSA variant N531G; P535A; R557K (enzyme) | 52.2 nM | 17 nM | 
32 | CFI-HSA variant D425W (enzyme) |  | 14.2 nM | 87.6 nM
33 | CFI-HSA variant A405G (enzyme) | 158 nM | 21.7 nM | 

From patent US20230038638A1, “COMPLEMENT FACTOR I-RELATED COMPOSITIONS AND METHODS” (published 2023)
